# Data as given in publication PMC10702411.
# Key:
# [1] = biological target: C-terminal fluorescein-labeled H3 peptide (1–12) (UniProt P68431); test: MST
# [2] = biological target: third BIR domain of BIRC2 (BIRC2_(BIR3)), GST cleaved (human) (UniProt Q13490); test: other fluorescence titration
# Chain of third BIR domain of BIRC2 (BIRC2_(BIR3)), GST cleaved (human) (Q13490 261-346): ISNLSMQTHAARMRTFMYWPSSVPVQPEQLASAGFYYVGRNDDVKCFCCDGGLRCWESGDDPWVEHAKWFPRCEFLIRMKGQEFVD
Substance,Kd [1] [nM],Kd [2] [nM]
"third BIR domain of BIRC2 (BIRC2_(BIR3)), GST cleaved (from UniProt Q13490 261-346) (domain or fragment)",340,–
H3_(1–12) peptide (residues 1–12 of H3) (from UniProt P68431 2-13),–,400
